Measurements reported in the supplement of paper PMC9233669.
This sample holds only a part of the variants without activity.

Tested on: biotinyl-Phe-oxazolone
Experiment: self-aminoacylation, catalytic enhancement (BFO) (fold over background); higher = more active; k-Seq, kA / k0A0; sequences stand for … in GGGAAUGGAUCCACAUCUACGAAUUC…UUCACUGCAGACUUGACGAAGCUG
In short: (§1)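 Each biotinyl-aminoacyl-oxazolone, at 2–1250 μM, was incubated with mutagenized RNA pools (0.43 μM) carrying a 21-nt variable region. The 50 μL reactions contained HEPES/NaCl/KCl/MgCl2/CaCl2 buffer with 5% acetonitrile at pH 6.9–7.0 and ran for 90 minutes at room temperature. After streptavidin capture, RNA was measured by qPCR in triplicate and by Illumina sequencing, and catalytic enhancement was calculated as median kA over the uncatalyzed rate from a pseudo-first-order fit of per-sequence fraction reacted.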

**Q.** “AAACACUUCAAGCAAUCGGUC [Fam1B.1 aminoacylation ribozyme variant]” was tested. Which self-aminoacylation did it give?
**A.** 18

**Q.** With “AAGCUUGCUAAUAGUCUCAAG [Fam3.1 aminoacylation ribozyme variant]” as the sequence, how does the self-aminoacylation read?
**A.** 2.19

**Q.** “AAGGUUGCUGAUAGUCGCAAG [Fam3.1 aminoacylation ribozyme variant]” was tested. Which self-aminoacylation did it give?
**A.** 2.05

**Q.** Which self-aminoacylation does the source give for “AAGUAGGCUAAUAGUCGCAAG [Fam3.1 aminoacylation ribozyme variant]” here?
**A.** 3.24

**Q.** For “AAGUAUGCUAAAAGUCGCAAG [Fam3.1 aminoacylation ribozyme variant]”, which self-aminoacylation is on record?
**A.** 8.97

**Q.** For “AAGUCUGCUAAGAGUCGCAAG [Fam3.1 aminoacylation ribozyme variant]”, which self-aminoacylation is on record?
**A.** 4.79

**Q.** How did the self-aminoacylation turn out when “AAGUCUGCUAUUAGUCGCAAG [Fam3.1 aminoacylation ribozyme variant]” was run?
**A.** 4.82

**Q.** Which self-aminoacylation does the source give for “AAGUUAGCUAAGAGUCGCAAG [Fam3.1 aminoacylation ribozyme variant]” here?
**A.** 2.38

**Q.** How did the self-aminoacylation turn out when “AAGUUAGCUAAUAGUCGAAAG [Fam3.1 aminoacylation ribozyme variant]” was run?
**A.** 3.83

**Q.** For “AAGUUAGCUGAUAGUCGCAAG [Fam3.1 aminoacylation ribozyme variant]”, which self-aminoacylation is on record?
**A.** 2.26

**Q.** How did the self-aminoacylation turn out when “AAGUUCGCUGAUAGUCGCAAG [Fam3.1 aminoacylation ribozyme variant]” was run?
**A.** 5.75

**Q.** With “AAGUUGUCUAAUAGUCGCAAG [Fam3.1 aminoacylation ribozyme variant]” as the sequence, how does the self-aminoacylation read?
**A.** 2.35

**Q.** “AAGUUUACCAAUAGUCGCAAG [Fam3.1 aminoacylation ribozyme variant]” was tested. Which self-aminoacylation did it give?
**A.** 2.58

**Q.** How did the self-aminoacylation turn out when “AAGUUUACUAAUAGCCGCAAG [Fam3.1 aminoacylation ribozyme variant]” was run?
**A.** 2.1

**Q.** For “AAGUUUACUAAUAGGCGCAAG [Fam3.1 aminoacylation ribozyme variant]”, which self-aminoacylation is on record?
**A.** 2.02

**Q.** “AAGUUUGCGAAUAGUGGCAAG [Fam3.1 aminoacylation ribozyme variant]” was tested. Which self-aminoacylation did it give?
**A.** 2.12

**Q.** Which self-aminoacylation does the source give for “AAGUUUGCUAAUAGUAGCAAA [Fam3.1 aminoacylation ribozyme variant]” here?
**A.** 2.93

**Q.** For “AAGUUUGCUAAUCGUCGCAAG [Fam3.1 aminoacylation ribozyme variant]”, which self-aminoacylation is on record?
**A.** 3.12

**Q.** Which self-aminoacylation does the source give for “AAGUUUGCUAAUGGUCGCACG [Fam3.1 aminoacylation ribozyme variant]” here?
**A.** 2.96

**Q.** With “AAGUUUGCUCAUCGUCGCAAG [Fam3.1 aminoacylation ribozyme variant]” as the sequence, how does the self-aminoacylation read?
**A.** 3.33

**Q.** How did the self-aminoacylation turn out when “AAGUUUGCUUAUAGUCGCAGG [Fam3.1 aminoacylation ribozyme variant]” was run?
**A.** 2.26

**Q.** With “AAGUUUGUUAAUAGUCGCAAG [Fam3.1 aminoacylation ribozyme variant]” as the sequence, how does the self-aminoacylation read?
**A.** 2.01

**Q.** With “AAGUUUUCUAAUAGUCGCAAC [Fam3.1 aminoacylation ribozyme variant]” as the sequence, how does the self-aminoacylation read?
**A.** 2.43

**Q.** How did the self-aminoacylation turn out when “AAGUUUUCUAAUUGUCGCAAG [Fam3.1 aminoacylation ribozyme variant]” was run?
**A.** 2.33

**Q.** For “AAGUUUUCUUAUAGUCGCAAG [Fam3.1 aminoacylation ribozyme variant]”, which self-aminoacylation is on record?
**A.** 3.91

**Q.** “AAUUUUGCUAAGAGUCGCAAG [Fam3.1 aminoacylation ribozyme variant]” was tested. Which self-aminoacylation did it give?
**A.** 2.23

**Q.** How did the self-aminoacylation turn out when “AAUUUUGCUAAUAGUCGCCAG [Fam3.1 aminoacylation ribozyme variant]” was run?
**A.** 2.69

**Q.** For “ACGUUUGCUAAUGGUCGCAAG [Fam3.1 aminoacylation ribozyme variant]”, which self-aminoacylation is on record?
**A.** 3.94

**Q.** For “AGGUUUGCUAAUAGUCGCAUG [Fam3.1 aminoacylation ribozyme variant]”, which self-aminoacylation is on record?
**A.** 3.56

**Q.** For “AUACGUCAAACAAUCGGUCUG [Fam1A.1 aminoacylation ribozyme variant]”, which self-aminoacylation is on record?
**A.** 5.56

**Q.** “AUCCACCUAGGUCAUCGUGUG [Fam2.2 aminoacylation ribozyme variant]” was tested. Which self-aminoacylation did it give?
**A.** 3.96

**Q.** For “AUUACCCGGGUCGUCGAGUGA [Fam2.1 aminoacylation ribozyme variant]”, which self-aminoacylation is on record?
**A.** 3.86

**Q.** Which self-aminoacylation does the source give for “AUUACCCUGGGCAUCGUGUGA [Fam2.1 aminoacylation ribozyme variant]” here?
**A.** 7.88

**Q.** How did the self-aminoacylation turn out when “AUUACCCUGGUCAACGUGUGA [Fam2.1 aminoacylation ribozyme variant]” was run?
**A.** 4.08

**Q.** Which self-aminoacylation does the source give for “AUUACCCUGGUCGUCGAGGGA [Fam2.1 aminoacylation ribozyme variant]” here?
**A.** 6.85

**Q.** With “AUUACCCUGUUCAUCAAGUGA [Fam2.1 aminoacylation ribozyme variant]” as the sequence, how does the self-aminoacylation read?
**A.** 2.65

**Q.** For “AUUAUCCUGGUCAUCGAGUUA [Fam2.1 aminoacylation ribozyme variant]”, which self-aminoacylation is on record?
**A.** 2.02

**Q.** Which self-aminoacylation does the source give for “AUUCACCAAGGUCAUCGUGUG [Fam2.2 aminoacylation ribozyme variant]” here?
**A.** 8.03

**Q.** With “AUUCACCGAGGUCAUCGUGUG [Fam2.2 aminoacylation ribozyme variant]” as the sequence, how does the self-aminoacylation read?
**A.** 6.45

**Q.** How did the self-aminoacylation turn out when “AUUCACCUAGGACAUCGUGUG [Fam2.2 aminoacylation ribozyme variant]” was run?
**A.** 3.71

**Q.** “AUUCACCUAGGUCACAGGGUG [Fam2.2 aminoacylation ribozyme variant]” was tested. Which self-aminoacylation did it give?
**A.** 5.68

**Q.** How did the self-aminoacylation turn out when “AUUCACCUAGGUCACCGGAUG [Fam2.2 aminoacylation ribozyme variant]” was run?
**A.** 2.86

**Q.** Which self-aminoacylation does the source give for “AUUCACCUAGGUCAUUGGUUG [Fam2.2 aminoacylation ribozyme variant]” here?
**A.** 2.3

**Q.** With “AUUCACCUAGGUCGUCGGUUG [Fam2.2 aminoacylation ribozyme variant]” as the sequence, how does the self-aminoacylation read?
**A.** 4.19

**Q.** “AUUCACCUAGGUCUUCGGGAG [Fam2.2 aminoacylation ribozyme variant]” was tested. Which self-aminoacylation did it give?
**A.** 4.51

**Q.** Which self-aminoacylation does the source give for “AUUCAGCUAGGUCAUCGUGUG [Fam2.2 aminoacylation ribozyme variant]” here?
**A.** 3.57

**Q.** For “AUUCAUCUAGGUCAUCGGCUG [Fam2.2 aminoacylation ribozyme variant]”, which self-aminoacylation is on record?
**A.** 4.5

**Q.** How did the self-aminoacylation turn out when “CAACUGCAAACAAUCGGUCUG [Fam1A.1 aminoacylation ribozyme variant]” was run?
**A.** 4.06

**Q.** “CAGUUUGCUAAUAGUCGAAAG [Fam3.1 aminoacylation ribozyme variant]” was tested. Which self-aminoacylation did it give?
**A.** 2.53

**Q.** How did the self-aminoacylation turn out when “CCACACUUCAAGAAAUCAGUC [Fam1B.1 aminoacylation ribozyme variant]” was run?
**A.** 4.56

**Q.** For “CCACACUUCAAGCGAUGGGUC [Fam1B.1 aminoacylation ribozyme variant]”, which self-aminoacylation is on record?
**A.** 3.56

**Q.** Which self-aminoacylation does the source give for “CCACACUUCAAGCUAUCGCUC [Fam1B.1 aminoacylation ribozyme variant]” here?
**A.** 2.03

**Q.** Which self-aminoacylation does the source give for “CCACACUUCACGCAUUCGGUC [Fam1B.1 aminoacylation ribozyme variant]” here?
**A.** 2.45

**Q.** For “CCACUUCAAACAACCGGUCUG [Fam1A.1 aminoacylation ribozyme variant]”, which self-aminoacylation is on record?
**A.** 2.13

**Q.** “CGACUUCAGACAAUCGGUCUG [Fam1A.1 aminoacylation ribozyme variant]” was tested. Which self-aminoacylation did it give?
**A.** 3.95

**Q.** For “CUAAUUCAAACAAUCGGUCGG [Fam1A.1 aminoacylation ribozyme variant]”, which self-aminoacylation is on record?
**A.** 2.14

**Q.** For “CUACGUCAAAGAAUCGGUCUG [Fam1A.1 aminoacylation ribozyme variant]”, which self-aminoacylation is on record?
**A.** 3.41

**Q.** With “CUACGUCAACCAAUCGGUCUG [Fam1A.1 aminoacylation ribozyme variant]” as the sequence, how does the self-aminoacylation read?
**A.** 3.4

**Q.** For “CUACUUCAAACAAUCACUCUG [Fam1A.1 aminoacylation ribozyme variant]”, which self-aminoacylation is on record?
**A.** 2.98

**Q.** For “CUACUUGAAACAAGCGGUCUG [Fam1A.1 aminoacylation ribozyme variant]”, which self-aminoacylation is on record?
**A.** 4.76

**Q.** For “CUUACCCUGGUCGUCGAGUGA [Fam2.1 aminoacylation ribozyme variant]”, which self-aminoacylation is on record?
**A.** 5.47

**Q.** With “GAGGUUGCUAAUAGUCGCAAG [Fam3.1 aminoacylation ribozyme variant]” as the sequence, how does the self-aminoacylation read?
**A.** 3.14

**Q.** How did the self-aminoacylation turn out when “GAGUUUGCUAAGAGUCGCAAG [Fam3.1 aminoacylation ribozyme variant]” was run?
**A.** 3.01

**Q.** “UAGUUUGCUAAUAGUCGCAUG [Fam3.1 aminoacylation ribozyme variant]” was tested. Which self-aminoacylation did it give?
**A.** 3.23

**Q.** For “UAGUUUGCUAAUAGUCUCAAG [Fam3.1 aminoacylation ribozyme variant]”, which self-aminoacylation is on record?
**A.** 3.9

**Q.** “UUACUGCAAACAAUCGGUCUG [Fam1A.1 aminoacylation ribozyme variant]” was tested. Which self-aminoacylation did it give?
**A.** 4.6

**Q.** Which self-aminoacylation does the source give for “UUACUUCGAACAAUCGGUCUG [Fam1A.1 aminoacylation ribozyme variant]” here?
**A.** 2.19

Tested on: biotinyl-Trp-oxazolone
Experiment: self-aminoacylation, catalytic enhancement (BWO) (fold over background); higher = more active; k-Seq, kA / k0A0; sequences stand for … in GGGAAUGGAUCCACAUCUACGAAUUC…UUCACUGCAGACUUGACGAAGCUG
In short: as §1

**Q.** Which self-aminoacylation does the source give for “AAACACUUCAAGCAAUCGGUC [Fam1B.1 aminoacylation ribozyme variant]” here?
**A.** 11.9

**Q.** For “AAAUUUGCUAAUAUUCGCAAG [Fam3.1 aminoacylation ribozyme variant]”, which self-aminoacylation is on record?
**A.** 2.01

**Q.** Which self-aminoacylation does the source give for “AAGAUUGCUAAUAGGCGCAAG [Fam3.1 aminoacylation ribozyme variant]” here?
**A.** 2.61

**Q.** With “AAGUAUGCUAAAAGUCGCAAG [Fam3.1 aminoacylation ribozyme variant]” as the sequence, how does the self-aminoacylation read?
**A.** 3.97

**Q.** Which self-aminoacylation does the source give for “AAGUUAGCUAAUCGUCGCAAG [Fam3.1 aminoacylation ribozyme variant]” here?
**A.** 2.21

**Q.** “AAGUUGGCUAAUAGUCACAAG [Fam3.1 aminoacylation ribozyme variant]” was tested. Which self-aminoacylation did it give?
**A.** 2.29

**Q.** How did the self-aminoacylation turn out when “AAGUUUGCUAAGAGUCGCCAG [Fam3.1 aminoacylation ribozyme variant]” was run?
**A.** 2.06

**Q.** For “AAGUUUGCUAAUUGUCGCAAC [Fam3.1 aminoacylation ribozyme variant]”, which self-aminoacylation is on record?
**A.** 2.13

**Q.** For “AAUUUUGCUAAUAGUCGCUAG [Fam3.1 aminoacylation ribozyme variant]”, which self-aminoacylation is on record?
**A.** 2.24

**Q.** Which self-aminoacylation does the source give for “AUUCACCUAGGUCAUUAGGUG [Fam2.2 aminoacylation ribozyme variant]” here?
**A.** 2.24

**Q.** Which self-aminoacylation does the source give for “CCACACUUCAAACAAUCGGGC [Fam1B.1 aminoacylation ribozyme variant]” here?
**A.** 2.65

**Q.** How did the self-aminoacylation turn out when “CUACUUCAAACACCCGGUCUG [Fam1A.1 aminoacylation ribozyme variant]” was run?
**A.** 2.08
